# Assay results reported in the supplement of paper PMC6757056.
# ± gives the standard deviation of the averaged measurements.
# B1: library; a variant is named by its letters at N, in order (parent)
# chain: GCUGUCACCGGUGCUUGGUACGUUAUAUUCAGCCGGUCUGAUGAGUCUNNNNNNAGACGAAACAGC
# What was measured:
# (6R,S)-folinic acid [1] = variants of: B1; experiment: normalized RNA/DNA level without ligand (relative to sTRSVctl = 100) (log10 (% of sTRSVctl)); HEK293T overexpressing SLC46A1; higher = less ribozyme self-cleavage, higher mRNA level; conditions: without (6R,S)-folinic acid; ligand present: no
# How it was run: (§1)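 Total RNA, extracted with EDTA 72 h after HEK293T cells were transfected with 4 µg per 6-well well of reporter-linked ribozyme switch library plasmids, was reverse-transcribed, amplified, barcoded and sequenced. Ligand, if used, was added 1 h before transfection. RNA level was derived from RNA reads divided by DNA reads and normalized to a spiked-in non-cleaving sequence or to the top sequences. This was multiplied by 100 and log10-transformed, with the top set of 25 sequences and a ≥100 DNA read minimum.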
# (6R,S)-folinic acid [2] = variants of: B1; experiment: normalized RNA/DNA level with ligand (relative to sTRSVctl = 100) (log10 (% of sTRSVctl)); HEK293T overexpressing SLC46A1; ligand concentration (+) RNA-Seq: 6 mM; higher = less ribozyme self-cleavage, higher mRNA level; conditions: with (6R,S)-folinic acid; ligand present: yes
# How it was run: as §1
Variant,"normalized RNA/DNA level without ligand (log10) ((6R,S)-folinic acid [1])","normalized RNA/DNA level with ligand (log10) ((6R,S)-folinic acid [2])"
GCUGUCACCGGUGCUUGGUACGUUAUAUUCAGCCGGUCUGAUGAGUCUACCCAUAGACGAAACAGC [ACCCAU],2.013 ± 0.01,2.01 ± 0.036
GCUGUCACCGGUGCUUGGUACGUUAUAUUCAGCCGGUCUGAUGAGUCUUCCCAUAGACGAAACAGC [UCCCAU],2.003 ± 0.0031,1.9973 ± 0.0006
GCUGUCACCGGUGCUUGGUACGUUAUAUUCAGCCGGUCUGAUGAGUCUCCCCCAAGACGAAACAGC [CCCCCA],2.023 ± 0.004,1.99 ± 0.047
GCUGUCACCGGUGCUUGGUACGUUAUAUUCAGCCGGUCUGAUGAGUCUGCCCCAAGACGAAACAGC [GCCCCA],2.031 ± 0.0049,2.01 ± 0.042
GCUGUCACCGGUGCUUGGUACGUUAUAUUCAGCCGGUCUGAUGAGUCUUCCCCAAGACGAAACAGC [UCCCCA],2.052 ± 0.0085,2.04 ± 0.033
GCUGUCACCGGUGCUUGGUACGUUAUAUUCAGCCGGUCUGAUGAGUCUACCCCAAGACGAAACAGC [ACCCCA],2.02 ± 0.011,2 ± 0.05
GCUGUCACCGGUGCUUGGUACGUUAUAUUCAGCCGGUCUGAUGAGUCUCCCCCCAGACGAAACAGC [CCCCCC],2.0694 ± 0.0015,2.02 ± 0.063
GCUGUCACCGGUGCUUGGUACGUUAUAUUCAGCCGGUCUGAUGAGUCUGCCCCCAGACGAAACAGC [GCCCCC],2.03 ± 0.032,2.04 ± 0.048
GCUGUCACCGGUGCUUGGUACGUUAUAUUCAGCCGGUCUGAUGAGUCUUCCCCCAGACGAAACAGC [UCCCCC],2.06 ± 0.033,2.063 ± 0.012
GCUGUCACCGGUGCUUGGUACGUUAUAUUCAGCCGGUCUGAUGAGUCUACCCCCAGACGAAACAGC [ACCCCC],2.04 ± 0.016,2.002 ± 0.015
GCUGUCACCGGUGCUUGGUACGUUAUAUUCAGCCGGUCUGAUGAGUCUCCCCCGAGACGAAACAGC [CCCCCG],2.05 ± 0.023,2 ± 0.0065
GCUGUCACCGGUGCUUGGUACGUUAUAUUCAGCCGGUCUGAUGAGUCUGCCCCGAGACGAAACAGC [GCCCCG],2.041 ± 0.012,1.99 ± 0.034
GCUGUCACCGGUGCUUGGUACGUUAUAUUCAGCCGGUCUGAUGAGUCUUCCCCGAGACGAAACAGC [UCCCCG],1.997 ± 0.008,2.041 ± 0.019
GCUGUCACCGGUGCUUGGUACGUUAUAUUCAGCCGGUCUGAUGAGUCUACCCCGAGACGAAACAGC [ACCCCG],1.998 ± 0.0083,1.99 ± 0.073
GCUGUCACCGGUGCUUGGUACGUUAUAUUCAGCCGGUCUGAUGAGUCUCCCCCUAGACGAAACAGC [CCCCCU],2.063 ± 0.017,2.01 ± 0.037
GCUGUCACCGGUGCUUGGUACGUUAUAUUCAGCCGGUCUGAUGAGUCUGCCCCUAGACGAAACAGC [GCCCCU],2.0548 ± 0.00021,2.024 ± 0.011
GCUGUCACCGGUGCUUGGUACGUUAUAUUCAGCCGGUCUGAUGAGUCUUCCCCUAGACGAAACAGC [UCCCCU],2.06 ± 0.025,2.04 ± 0.049
GCUGUCACCGGUGCUUGGUACGUUAUAUUCAGCCGGUCUGAUGAGUCUACCCCUAGACGAAACAGC [ACCCCU],1.997 ± 0.0056,1.98 ± 0.073
GCUGUCACCGGUGCUUGGUACGUUAUAUUCAGCCGGUCUGAUGAGUCUGCCCGAAGACGAAACAGC [GCCCGA],2.0343 ± 0.0013,2.04 ± 0.041
GCUGUCACCGGUGCUUGGUACGUUAUAUUCAGCCGGUCUGAUGAGUCUUCCCGAAGACGAAACAGC [UCCCGA],2.033 ± 0.008,2.07 ± 0.033
GCUGUCACCGGUGCUUGGUACGUUAUAUUCAGCCGGUCUGAUGAGUCUCCCCGCAGACGAAACAGC [CCCCGC],2.09 ± 0.0037,2.05 ± 0.034
